The target of experiment [1] is T1, Peptide_096 (human).
T1 sequence (peptide): FFKKGQKVGEFSGAN
Kind of experiment: peptide microarray, 1 ug/mL.

For experiment [2], the target named is T2, Peptide_097 (human).
T2 sequence (peptide): FKKGQKVGEFSGANK
Kind of experiment: peptide microarray, 1 ug/mL.

The target in experiment [3] is T3, Peptide_044 (human).
T3 sequence (peptide): FSATWCGPCKMIKPF
Kind of experiment: peptide microarray, 1 ug/mL.

Experiment [4] deals with T1, Peptide_096 (human). Kind of experiment: peptide microarray, 0.0016 ug/mL.
Experiment [5] has as its target T2, Peptide_097 (human). Kind of experiment: peptide microarray, 0.0016 ug/mL.
Experiment [6] deals with T3, Peptide_044 (human). Kind of experiment: peptide microarray, 0.0016 ug/mL.
Experiment [7] concerns the target T1, Peptide_096 (human). Kind of experiment: peptide microarray, 0.04 ug/mL.
Experiment [8] addresses T2, Peptide_097 (human). Kind of experiment: peptide microarray, 0.04 ug/mL.
In experiment [9] the target is T3, Peptide_044 (human). Kind of experiment: peptide microarray, 0.04 ug/mL.
Experiment [10] has as its target T4, M7.
T4 sequence (single chain): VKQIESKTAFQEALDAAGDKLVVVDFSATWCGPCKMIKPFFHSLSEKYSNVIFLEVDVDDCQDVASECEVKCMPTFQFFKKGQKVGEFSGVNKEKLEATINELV
Kind of experiment: ELISA, mutant M7 coated at 2 ug/mL, antibody concentration not given, anti-mouse Fc-HRP (Example 16). Background: An ELISA detects its analyte on a solid surface through an enzyme-linked reagent.

In experiment [11] the target is TRX-N-His-M4 (human) (UniProt P10599). Kind of experiment: ELISA, mutant M4 coated at 2 ug/mL, antibody concentration not given, anti-mouse Fc-HRP (Example 16).
Experiment [12] concerns the target TRX-N-His-M1 (human) (UniProt P10599). Kind of experiment: ELISA, mutant M1 coated at 2 ug/mL, antibody concentration not given, anti-mouse Fc-HRP (Example 16).
For experiment [13], the target named is T1, Peptide_096 (human). Kind of experiment: peptide microarray, 0.2 ug/mL.
Experiment [14] addresses T2, Peptide_097 (human). Kind of experiment: peptide microarray, 0.2 ug/mL.
Experiment [15] addresses T3, Peptide_044 (human). Kind of experiment: peptide microarray, 0.2 ug/mL.
Experiment [16] concerns the target T1, Peptide_096 (human). Kind of experiment: peptide microarray, head 0.08 ug (text 0.008 ug/mL).
Experiment [17] deals with T2, Peptide_097 (human). The experiment is described as above.
Experiment [18] addresses T3, Peptide_044 (human). The description is as above.
For experiment [19], the target named is T1, Peptide_096 (human). Kind of experiment: peptide microarray, 5 ug/mL.
In experiment [20] the target is T2, Peptide_097 (human). Kind of experiment: peptide microarray, 5 ug/mL.
The target of experiment [21] is T3, Peptide_044 (human). Kind of experiment: peptide microarray, 5 ug/mL.
Experiment [22] addresses TRX-N-His-M2 (human) (UniProt P10599). Kind of experiment: ELISA, mutant M2 coated at 2 ug/mL, antibody concentration not given, anti-mouse Fc-HRP (Example 16).

Sequence of TRX-N-His-M1 (human) (P10599 whole entry): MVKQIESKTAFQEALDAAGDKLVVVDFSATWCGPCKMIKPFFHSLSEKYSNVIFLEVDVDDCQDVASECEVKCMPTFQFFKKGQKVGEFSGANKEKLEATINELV
Sequence of TRX-N-His-M2 (human) (P10599 whole entry): as above
Sequence of TRX-N-His-M4 (human) (P10599 whole entry): as above

B1: monoclonal antibody B264 (antibody, mouse IgG1, kappa, V domains shown)
VH: QVQLQQSGAELARPGASVKMSCKASGYTFTSYTMHWVKQRPGQGLEWIGYINPTSDYTNYNQKFKDKATLTADKSSSTAYMQLSSLTSEDSAVYFCASEGGFLYYFDYWGQGTTLTVSS
VL: DVLMTQTPLSLPVSLGDQASISCRSSQSIVHSNGNTYLEWYLQKPGQSPKLLIYKVSNRFSGVPDRFSGSGSGTDFTLKISRVEAEDLGVYYCFQGSHVPYTFGGGTKLEIKR
With B1, the signal (blank-control = 1) was 2.04 in experiment [1]; 2.18 in experiment [2]; 2.93 in [3]; 0.82 in experiment [4]; 0.91 in experiment [5]; 1.6 in experiment [6]. Further, the signal (blank-control = 1) in [7] was 1.44; in experiment [8] it was 1.31; in experiment [9], 2.12; in [13], 1.37; in experiment [14], 1.68; in experiment [15], 2.3. Besides, the signal (blank-control = 1) was found to be 0.94 in [16]; 1.08 in [17]; 1.87 in [18]; 1.9 in [19]; 2.26 in [20]; 3.33 in experiment [21]. In addition, the OD 490 nm stood at 0.761 in experiment [10], 0.181 in experiment [11], 0.0424 in [12] and 0.094 in experiment [22].

(Values after patent US20240192215A1.)
